We go through five molecules from paper PMC11079029, “Intramolecular autoinhibition regulates the selectivity of PRPF40A tandem WW domains for proline-rich motifs” (Nature Communications, 2024).

The test system of this experiment is GFP-tagged PRPF40A-Nter-MUT. Briefly: SILAC GFP-immunoprecipitation with quantitative mass spectrometry, mutant construct. The experiment is classed as binding, human (Hela cells). The note with it: quantitative MS, Hela cells, protein by gene name. The procedure: The PRPF40A N-terminal region (isoform 2, residues 1-221) was PCR-amplified from RPE1 cDNA (ATCC, Cat# CRL-4000) cDNA. The sequence was amplified in two fragments and both fragments were combined by overhang. All PCRs were carried out using Q5 Polymerase (NEB) according to manufacturer’s protocol. The resulting PRPF40A N-terminal region was cloned into a GFP-expressing pcDNA5 vector (see pcDNA5 GFP vector in ref. [28]) using Q5 Site-Directed Mutagenesis Kit (NEB). Nter-MUT, containing the PPVP/PALPP motifs changed to AAAA/AAAAA, was obtained by mutating the N-ter-WW12-containing plasmid with Q5 site-directed mutagenesis. Plasmids were transformed into DH5alpha chemically competent cells. After culturing, DNA isolation was performed with either ZymoPURE Plasmid Miniprep Kit (Zymo Research) or QIAGEN Plasmid Plus Midi Kit (Qiagen). The sequence was confirmed by Sanger Sequencing (GATC Eurofins). All used oligonucleotides are shown in Supplementary Table 6.
Hela cells (ATCC, Cat# CCL-2, RRID:CVCL_0030) were cultured in DMEM SILAC medium (Thermo Fisher) supplemented with 10% filtered FBS (Sigma-Aldrich) and 1% penicillin-streptomycin (Thermo-Fisher). The SILAC medium contains either light (Arg0, Lys0), medium (Arg6, Lys4) or heavy (Arg10, Lys8) isotopes (Cambridge Isotopes Laboratories). Hela cells were cultivated for 14 days in SILAC medium to assure sufficient isotope incorporation. For transfection, 7 × 10^6 Hela cells were seeded in a 15 cm culture dish in 20 ml of respective SILAC medium and grown for 24 h. The cells were then transfected with 20 µg of plasmids expressing either GFP (Control), GFP-tagged N-ext-WW12 or GFP-tagged-N-ext-WW12-MUT utilizing 64 µl FuGENE (Promega) (ratio 1:3.2), according to manufacturer’s protocol.
24 h post-transfection, cells were washed twice in ice-cold PBS and harvested in 1 ml mRIPA buffer (50 mM Tris, 150 mM NaCl, 1 mM EDTA, 1% NP-40, 0.1% Na-deoxycholate), supplemented with 2 µl Turbo-DNase (Thermo Fisher) and 3 µl protease-inhibitor cocktail cOmplete (Sigma-Aldrich). Cell lysates were cleared by centrifugation at 16,000 × g, 4 °C, 15 min and concentration was measured using Pierce BCA Protein Assay kit (Thermo Scientific). The expressed constructs were pulled down by incubating 2.5 mg of lysate with 20 μl GFP-nanobody agarose beads (ChromoTek, GTA-20) for 1 h at 4 °C under constant agitation. Subsequently, beads were washed three times with mRIPA buffer without supplements, then eluted in 1X NuPAGE LDS sample buffer (Thermo Scientific). To detach the proteins from the beads, the eluate was heated to 70 °C for 10 min To evaluate the success of the immunoprecipitation, input (1%) and IP samples were analyzed on a NuPAGE 4–12% Bis-Tris-Acrylamide gel (Thermo Fisher) using NuPAGE MOPS SDS running buffer (Thermo Fisher). Proteins were stained using Sypro Ruby protein gel stain (Thermo Fisher) according to manufacturer’s protocol.
The eluted proteins of three SILAC states (light, medium, heavy) were combined. The proteins were then reduced in DTT, alkylated in iodoacetamide, and purified using the SP3 paramagnetic bead approach. This was followed by overnight enzymatic digestion using trypsin (1 µg per sample) in 50 mM ammonium bicarbonate at 37 °C. The peptide solution was then purified by solid phase extraction in C18 StageTips[99].
Peptides were separated by online reverse phase liquid chromatography using the EASY-nLC 1000 system (Thermo Scientific) in a 30-cm analytical column (inner diameter: 75 μm; heated at 50 °C) packed in-house with ReproSil-Pur 120 C18-AQ 1.9-μm beads (Dr. Maisch GmbH). The gradient separation was performed through a 105-min non-linear gradient of 1.6–32% acetonitrile with 0.1% formic acid at a nanoflow rate of 225 nl/min. The eluted peptides were sprayed directly by electrospray ionization into a Q Exactive Plus Orbitrap mass spectrometer (Thermo Scientific). […]

B1: MEPCE (protein, UniProt Q7L2J0 1-689, looked up)
7SK snRNA methylphosphate …: MIEMAAEKEPFLVPAPPPPLKDESGGGGGPTVPPHQEAASGELRGGTERGPGRCAPSAGSPAAAVGRESPGAAATSSSGPQAQQHRGGGPQAQSHGEARLSDPPGRAAPPDVGEERRGGGGTELGPPAPPRPRNGYQPHRPPGGGGGKRRNSCNVGGGGGGFKHPAFKRRRRVNSDCDSVLPSNFLLGGNIFDPLNLNSLLDEEVSRTLNAETPKSSPLPAKGRDPVEILIPKDITDPLSLNTCTDEGHVVLASPLKTGRKRHRHRGQHHQQQQAAGGSESHPVPPTAPLTPLLHGEGASQQPRHRGQNRDAPQPYELNTAINCRDEVVSPLPSALQGPSGSLSAPPAASVISAPPSSSSRHRKRRRTSSKSEAGARGGGQGSKEKGRGSWGGRHHHHHPLPAAGFKKQQRKFQYGNYCKYYGYRNPSCEDGRLRVLKPEWFRGRDVLDLGCNVGHLTLSIACKWGPSRMVGLDIDSRLIHSARQNIRHYLSEELRLPPQTLEGDPGAEGEEGTTTVRKRSCFPASLTASRGPIAAPQVPLDGADTSVFPNNVVFVTGNYVLDRDDLVEAQTPEYDVVLCLSLTKWVHLNWGDEGLKRMFRRIYRHLRPGGILVLEPQPWSSYGKRKTLTETIYKNYYRIQLKPEQFSSYLTSPDVGFSSYELVATPHNTSKGFQRPVYLFHKARSPSH
In the case of B1, the “Immunoprecipitation enrichment MUT vs WT, log2 FC” value is 1.321.

B2: DDX20 (protein, UniProt Q9UHI6 1-824, looked up)
Probable ATP-dependent RNA …: MAAAFEASGALAAVATAMPAEHVAVQVPAPEPTPGPVRILRTAQDLSSPRTRTGDVLLAEPADFESLLLSRPVLEGLRAAGFERPSPVQLKAIPLGRCGLDLIVQAKSGTGKTCVFSTIALDSLVLENLSTQILILAPTREIAVQIHSVITAIGIKMEGLECHVFIGGTPLSQDKTRLKKCHIAVGSPGRIKQLIELDYLNPGSIRLFILDEADKLLEEGSFQEQINWIYSSLPASKQMLAVSATYPEFLANALTKYMRDPTFVRLNSSDPSLIGLKQYYKVVNSYPLAHKVFEEKTQHLQELFSRIPFNQALVFSNLHSRAQHLADILSSKGFPAECISGNMNQNQRLDAMAKLKHFHCRVLISTDLTSRGIDAEKVNLVVNLDVPLDWETYMHRIGRAGRFGTLGLTVTYCCRGEEENMMMRIAQKCNINLLPLPDPIPSGLMEECVDWDVEVKAAVHTYGIASVPNQPLKKQIQKIERTLQIQKAHGDHMASSRNNSVSGLSVKSKNNTKQKLPVKSHSECGIIEKATSPKELGCDRQSEEQMKNSVQTPVENSTNSQHQVKEALPVSLPQIPCLSSFKIHQPYTLTFAELVEDYEHYIKEGLEKPVEIIRHYTGPGDQTVNPQNGFVRNKVIEQRVPVLASSSQSGDSESDSDSYSSRTSSQSKGNKSYLEGSSDNQLKDSESTPVDDRISLEQPPNGSDTPNPEKYQESPGIQMKTRLKEGASQRAKQSRRNLPRRSSFRLQTEAQEDDWYDCHREIRLSFSDTYQDYEEYWRAYYRAWQEYYAAASHSYYWNAQRHPSWMAAYHMNTIYLQEMMHSNQ
Turning to B2, the “Immunoprecipitation enrichment MUT vs WT, log2 FC” value amounted to 1.113.

B3: HNRNPUL1 (protein, UniProt Q9BUJ2 1-856, looked up)
Heterogeneous nuclear …: MDVRRLKVNELREELQRRGLDTRGLKAELAERLQAALEAEEPDDERELDADDEPGRPGHINEEVETEGGSELEGTAQPPPPGLQPHAEPGGYSGPDGHYAMDNITRQNQFYDTQVIKQENESGYERRPLEMEQQQAYRPEMKTEMKQGAPTSFLPPEASQLKPDRQQFQSRKRPYEENRGRGYFEHREDRRGRSPQPPAEEDEDDFDDTLVAIDTYNCDLHFKVARDRSSGYPLTIEGFAYLWSGARASYGVRRGRVCFEMKINEEISVKHLPSTEPDPHVVRIGWSLDSCSTQLGEEPFSYGYGGTGKKSTNSRFENYGDKFAENDVIGCFADFECGNDVELSFTKNGKWMGIAFRIQKEALGGQALYPHVLVKNCAVEFNFGQRAEPYCSVLPGFTFIQHLPLSERIRGTVGPKSKAECEILMMVGLPAAGKTTWAIKHAASNPSKKYNILGTNAIMDKMRVMGLRRQRNYAGRWDVLIQQATQCLNRLIQIAARKKRNYILDQTNVYGSAQRRKMRPFEGFQRKAIVICPTDEDLKDRTIKRTDEEGKDVPDHAVLEMKANFTLPDVGDFLDEVLFIELQREEADKLVRQYNEEGRKAGPPPEKRFDNRGGGGFRGRGGGGGFQRYENRGPPGGNRGGFQNRGGGSGGGGNYRGGFNRSGGGGYSQNRWGNNNRDNNNSNNRGSYNRAPQQQPPPQQPPPPQPPPQQPPPPPSYSPARNPPGASTYNKNSNIPGSSANTSTPTVSSYSPPQPSYSQPPYNQGGYSQGYTAPPPPPPPPPAYNYGSYGGYNPAPYTPPPPPTAQTYPQPSYNQYQQYAQQWNQYYQNQGQWPPYYGNYDYGSYSGNTQGGTSTQ
B3: the “Immunoprecipitation enrichment MUT vs WT, log2 FC” value is on record as 1.072.

B4: SF3B1 (protein, UniProt O75533 1-1304, looked up)
Splicing factor 3B subunit 1: MAKIAKTHEDIEAQIREIQGKKAALDEAQGVGLDSTGYYDQEIYGGSDSRFAGYVTSIAATELEDDDDDYSSSTSLLGQKKPGYHAPVALLNDIPQSTEQYDPFAEHRPPKIADREDEYKKHRRTMIISPERLDPFADGGKTPDPKMNARTYMDVMREQHLTKEEREIRQQLAEKAKAGELKVVNGAAASQPPSKRKRRWDQTADQTPGATPKKLSSWDQAETPGHTPSLRWDETPGRAKGSETPGATPGSKIWDPTPSHTPAGAATPGRGDTPGHATPGHGGATSSARKNRWDETPKTERDTPGHGSGWAETPRTDRGGDSIGETPTPGASKRKSRWDETPASQMGGSTPVLTPGKTPIGTPAMNMATPTPGHIMSMTPEQLQAWRWEREIDERNRPLSDEELDAMFPEGYKVLPPPAGYVPIRTPARKLTATPTPLGGMTGFHMQTEDRTMKSVNDQPSGNLPFLKPDDIQYFDKLLVDVDESTLSPEEQKERKIMKLLLKIKNGTPPMRKAALRQITDKAREFGAGPLFNQILPLLMSPTLEDQERHLLVKVIDRILYKLDDLVRPYVHKILVVIEPLLIDEDYYARVEGREIISNLAKAAGLATMISTMRPDIDNMDEYVRNTTARAFAVVASALGIPSLLPFLKAVCKSKKSWQARHTGIKIVQQIAILMGCAILPHLRSLVEIIEHGLVDEQQKVRTISALAIAALAEAATPYGIESFDSVLKPLWKGIRQHRGKGLAAFLKAIGYLIPLMDAEYANYYTREVMLILIREFQSPDEEMKKIVLKVVKQCCGTDGVEANYIKTEILPPFFKHFWQHRMALDRRNYRQLVDTTVELANKVGAAEIISRIVDDLKDEAEQYRKMVMETIEKIMGNLGAADIDHKLEEQLIDGILYAFQEQTTEDSVMLNGFGTVVNALGKRVKPYLPQICGTVLWRLNNKSAKVRQQAADLISRTAVVMKTCQEEKLMGHLGVVLYEYLGEEYPEVLGSILGALKAIVNVIGMHKMTPPIKDLLPRLTPILKNRHEKVQENCIDLVGRIADRGAEYVSAREWMRICFELLELLKAHKKAIRRATVNTFGYIAKAIGPHDVLATLLNNLKVQERQNRVCTTVAIAIVAETCSPFTVLPALMNEYRVPELNVQNGVLKSLSFLFEYIGEMGKDYIYAVTPLLEDALMDRDLVHRQTASAVVQHMSLGVYGFGCEDSLNHLLNYVWPNVFETSPHVIQAVMGALEGLRVAIGPCRMLQYCLQGLFHPARKVRDVYWKIYNSIYIGSQDALIAHYPRIYNDDKNTYIRYELDYIL
Consider B4, for which the “Immunoprecipitation enrichment MUT vs WT, log2 FC” value amounted to 0.9931.

B5: ATXN10 (protein, UniProt Q9UBB4 1-475, looked up)
Ataxin-10: MAAPRPPPARLSGVMVPAPIQDLEALRALTALFKEQRNRETAPRTIFQRVLDILKKSSHAVELACRDPSQVENLASSLQLITECFRCLRNACIECSVNQNSIRNLDTIGVAVDLILLFRELRVEQESLLTAFRCGLQFLGNIASRNEDSQSIVWVHAFPELFLSCLNHPDKKIVAYSSMILFTSLNHERMKELEENLNIAIDVIDAYQKHPESEWPFLIITDLFLKSPELVQAMFPKLNNQERVTLLDLMIAKITSDEPLTKDDIPVFLRHAELIASTFVDQCKTVLKLASEEPPDDEEALATIRLLDVLCEMTVNTELLGYLQVFPGLLERVIDLLRVIHVAGKETTNIFSNCGCVRAEGDISNVANGFKSHLIRLIGNLCYKNKDNQDKVNELDGIPLILDNCNISDSNPFLTQWVIYAIRNLTEDNSQNQDLIAKMEEQGLADASLLKKVGFEVEKKGEKLILKSTRDTPKP
Consider B5, for which the “Immunoprecipitation enrichment MUT vs WT, log2 FC” value is listed as 1.57.
